# Assay results taken from US20220411530A1 (NANTONG YICHEN BIOPHARMA, published 2022).
# Key:
# [1] = molecular target: T1, PSMA on the surface of LnCap cells (human, UniProt Q04609 1-750); test: cell-based or functional assay
# [2] = molecular target: T2, CD3 on Jurkat (CD3+) cells (Homo sapiens (Human), UniProt P07766 23-207; P04234 22-171; P09693 23-182); test: flow cytometry on Jurkat (CD3+) cells
# T2 construct: also called Jurkat T cells
# [3] = molecular target: T1, PSMA on the surface of LnCap cells; test: flow cytometry on LnCap (PSMA+) cells
# T1 sequence (Q04609 whole entry): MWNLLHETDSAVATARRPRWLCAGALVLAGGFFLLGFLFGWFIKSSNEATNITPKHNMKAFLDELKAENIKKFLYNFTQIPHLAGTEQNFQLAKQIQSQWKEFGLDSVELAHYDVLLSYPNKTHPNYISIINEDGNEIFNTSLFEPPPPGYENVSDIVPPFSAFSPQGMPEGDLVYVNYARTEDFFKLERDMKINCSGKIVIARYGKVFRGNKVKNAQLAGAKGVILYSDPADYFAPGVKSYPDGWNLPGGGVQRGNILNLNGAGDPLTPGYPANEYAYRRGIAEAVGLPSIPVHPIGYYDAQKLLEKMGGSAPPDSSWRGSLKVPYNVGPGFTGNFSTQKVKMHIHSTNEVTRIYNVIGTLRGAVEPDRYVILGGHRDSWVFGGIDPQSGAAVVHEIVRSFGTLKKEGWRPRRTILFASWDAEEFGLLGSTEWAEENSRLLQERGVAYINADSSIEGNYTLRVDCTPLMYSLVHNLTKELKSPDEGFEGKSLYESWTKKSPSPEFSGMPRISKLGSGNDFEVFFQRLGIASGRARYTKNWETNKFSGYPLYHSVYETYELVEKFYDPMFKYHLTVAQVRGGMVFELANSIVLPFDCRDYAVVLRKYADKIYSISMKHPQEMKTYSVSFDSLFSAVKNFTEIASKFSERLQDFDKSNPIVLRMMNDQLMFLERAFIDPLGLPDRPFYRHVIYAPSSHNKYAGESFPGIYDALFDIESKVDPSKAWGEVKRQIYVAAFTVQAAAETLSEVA
# T2 sequence (P07766 23-207 limits assumed, form in doubt, chain 1 of 3): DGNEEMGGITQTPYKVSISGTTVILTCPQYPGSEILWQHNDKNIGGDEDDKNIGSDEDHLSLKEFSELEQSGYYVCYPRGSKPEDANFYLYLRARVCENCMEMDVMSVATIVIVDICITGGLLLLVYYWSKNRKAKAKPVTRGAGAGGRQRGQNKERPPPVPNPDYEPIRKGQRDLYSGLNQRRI
# T2 sequence (P04234 22-171 limits assumed, form in doubt, chain 2 of 3): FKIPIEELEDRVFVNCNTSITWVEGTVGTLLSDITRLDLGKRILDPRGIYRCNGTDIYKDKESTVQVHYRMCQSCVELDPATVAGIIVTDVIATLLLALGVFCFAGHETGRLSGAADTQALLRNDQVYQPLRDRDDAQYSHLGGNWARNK
# T2 sequence (P09693 23-182 limits assumed, form in doubt, chain 3 of 3): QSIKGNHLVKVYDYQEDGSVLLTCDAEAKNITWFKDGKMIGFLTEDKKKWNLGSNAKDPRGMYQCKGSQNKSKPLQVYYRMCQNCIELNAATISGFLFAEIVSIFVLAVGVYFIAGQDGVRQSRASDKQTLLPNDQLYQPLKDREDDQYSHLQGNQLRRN
binder,measurement,setting,value
"aCD3-aPSMA bispecific antibody (bispecific antibody, also called the bispecific antibody) chain 1: not shown chain 2: EVQLVESGGGLVQPGGSLRLSCAASGFTFNTYAMNWVRQAPGKGLEWVARIRSKYNNYATYYADSVKDRFTISRDDSKNTLYLQMNSLRAEDTAVYYCVRHGNFGNSYVSWFAYWGQGTLVTVSS",LDH Killing EC50 (pM),[1],184 pM
same,EC50,[2],0.51 nM
same,EC50,[3],0.05 nM
